Laboratory results reported in PMC9953421, “Regulation of CRISPR-Associated Genes by Rv1776c (CasR) in Mycobacterium tuberculosis”.

Biological target: T1, CasR (Rv1776c) (UniProt O33179 1-186)
T1 sequence: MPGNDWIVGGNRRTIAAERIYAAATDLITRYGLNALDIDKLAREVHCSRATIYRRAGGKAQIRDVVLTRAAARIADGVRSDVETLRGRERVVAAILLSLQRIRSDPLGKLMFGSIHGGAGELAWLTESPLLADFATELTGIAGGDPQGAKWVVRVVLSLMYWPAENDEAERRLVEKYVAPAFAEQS
Assay: EMSA; 0-2 uM protein
Conditions: protein: recombinant, tags: N-terminal His (pET28a), chain copies: 2

B1: casRp1 (dsDNA)
DNA 1: AATAAGTAAGGCTTGTGTCTCACTATGA
DNA 2: TCATAGTGAGACACAAGCCTTACTTATT
binding result (blunt): binds

B2: csm6p1 (dsDNA)
DNA 1: CGATAGTTGGCCCAATTGTCTATCTGGGC
DNA 2: GCCCAGATAGACAATTGGGCCAACTATCG
binding result: binds
